In publication PMC7464098, “Conformational Equilibrium of NADPH–Cytochrome P450 Oxidoreductase Is Essential for Heme Oxygenase Reaction” (Antioxidants, 2020):

How the values were obtained:
Details in all cases: both partners purified
IAM/DTT-treated 147CC514 = IAM/DTT-treated 147CC514 (rat, UniProt P00388 58-678, Asp147 substituted with cysteine | Arg514 substituted with cysteine | Cys136Ala …, disulfide bond between Cys147 and Cys514 cleaved, both cysteine residues alkylated (2-iodoacetamide)); assay: AUC; sedimentation equilibrium, equimolar mixtures (15 μM each for 147CC514; concentrations for rCPR and IAM/DTT-treated 147CC514 not told), 25 °C, 0.1 M potassium phosphate pH 7.4, 15,000 rpm, absorbance at 455 nm; apparent affinity
[1] = biological target: T1, rat NADPH–cytochrome P450 oxidoreductase (soluble form) (rat, UniProt P00388 58-678); assay: as above
T1 construct: Holds FAD and FMN; The limit Met1-Ile57 is printed in the sentence on the 147CC514 cDNA; also called rCPR; CPR; source: E. coli, purified
T1 sequence (looked up): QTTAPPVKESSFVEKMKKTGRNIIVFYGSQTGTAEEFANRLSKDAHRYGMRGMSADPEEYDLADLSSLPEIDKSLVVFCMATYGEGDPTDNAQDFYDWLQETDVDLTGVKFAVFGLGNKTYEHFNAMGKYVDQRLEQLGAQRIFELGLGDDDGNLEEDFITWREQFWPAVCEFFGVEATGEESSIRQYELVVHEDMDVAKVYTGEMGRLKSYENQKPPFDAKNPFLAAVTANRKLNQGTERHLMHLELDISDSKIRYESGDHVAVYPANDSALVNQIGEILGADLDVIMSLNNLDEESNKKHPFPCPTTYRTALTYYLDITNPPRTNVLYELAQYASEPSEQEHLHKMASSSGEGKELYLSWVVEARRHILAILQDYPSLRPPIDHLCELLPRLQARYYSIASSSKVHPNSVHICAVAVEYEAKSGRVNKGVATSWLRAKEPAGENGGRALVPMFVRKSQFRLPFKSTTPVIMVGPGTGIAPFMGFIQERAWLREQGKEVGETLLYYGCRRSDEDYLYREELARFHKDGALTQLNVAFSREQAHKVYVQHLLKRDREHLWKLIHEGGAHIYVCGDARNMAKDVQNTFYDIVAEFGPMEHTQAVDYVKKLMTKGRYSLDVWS

[2] = biological target: rat CPR mutant with a disulfide bridge Cys147–Cys514 (closed-form stabilized CPR) (rat, UniProt P00388 58-678, Asp147 substituted with cysteine | Arg514 substituted with cysteine | Cys136Ala …, disulfide bond between Cys147 and Cys514); assay: as above
[3] = biological target: T2, rat CPR mutant lacking Thr236 to Glu239 of the hinge (open-form stabilized CPR) (rat, UniProt P00388 58-678, ΔTGEE (from Thr236 to Glu239 removed)); assay: AUC; sedimentation equilibrium, 5 μM heme–rHO-1 plus 5 μM CPR sample, 25 °C, 0.1 M potassium phosphate pH 7.4, 15,000 rpm, absorbance at 455 nm; fit to HO-1 + CPR ⇄ HO-1•CPR
T2 construct: rat NADPH–cytochrome P450 reductase, soluble form without the membrane-spanning region (Met1-Ile57), four consecutive hinge residues Thr236 to Glu239 removed; Holds FAD and FMN; also called ΔTGEE; source: E. coli, purified
T2 sequence (looked up): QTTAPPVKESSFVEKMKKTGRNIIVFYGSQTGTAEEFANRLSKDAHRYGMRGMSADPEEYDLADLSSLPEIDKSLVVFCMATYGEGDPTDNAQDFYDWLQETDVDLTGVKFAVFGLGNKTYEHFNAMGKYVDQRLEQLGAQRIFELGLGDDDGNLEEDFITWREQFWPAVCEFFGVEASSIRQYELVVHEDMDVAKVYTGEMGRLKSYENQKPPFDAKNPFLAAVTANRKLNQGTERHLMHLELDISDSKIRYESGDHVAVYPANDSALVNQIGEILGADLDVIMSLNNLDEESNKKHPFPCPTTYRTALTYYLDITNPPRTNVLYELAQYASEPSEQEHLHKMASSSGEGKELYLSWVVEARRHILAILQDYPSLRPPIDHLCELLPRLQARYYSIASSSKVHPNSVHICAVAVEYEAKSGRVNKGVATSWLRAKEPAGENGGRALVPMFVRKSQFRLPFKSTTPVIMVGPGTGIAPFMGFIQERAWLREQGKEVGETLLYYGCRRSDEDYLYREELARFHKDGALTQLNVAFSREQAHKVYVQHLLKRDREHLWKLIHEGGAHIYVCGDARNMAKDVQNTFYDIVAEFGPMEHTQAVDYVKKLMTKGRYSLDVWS

Kd (IAM/DTT-treated 147CC514): 65.5 ± 17 µM
Kd [1]: 62.1 ± 1.7 µM
Kd [2]: 111 ± 5 µM
Kd [3]: 0.178 ± 0.077 µM
B1: heme–rat heme oxygenase-1 complex (soluble form) (enzyme)
chain: MERPQLDSMSQDLSEALKEATKEVHIRAENSEFMRNFQKGQVSREGFKLVMASLYHIYTALEEEIERNKQNPVYAPLYFPEELHRRAALEQDMAFWYGPHWQEAIPYTPATQHYVKRLHEVGGTHPELLVAHAYTRYLGDLSGGQVLKKIAQKAMALPSSGEGLAFFTFPSIDNPTKFKQLYRARMNTLEMTPEVKHRVTEEAKTAFLLNIELFEELQALLTEEHKDQSPSQTEFLRQRPASLVQDTTSAETPRGKSQISTSSSQTP
notes: rat heme oxygenase-1 (HO-1), soluble form made by removing the membrane-spanning region; also called heme–rHO-1; heme–HO-1; source: E. coli, purified; reconstituted with 1.2 equiv. of heme, hydroxyapatite column
